{"source": "patent US20240270846A1", "about": "(published 2024)", "molecular_target": "T1, CD3 epsilon homodimer protein (UniProt P07766 23-126)", "T1 construct": "also called CD3 (CD3 epsilon)", "T1 sequence (P07766 23-126)": "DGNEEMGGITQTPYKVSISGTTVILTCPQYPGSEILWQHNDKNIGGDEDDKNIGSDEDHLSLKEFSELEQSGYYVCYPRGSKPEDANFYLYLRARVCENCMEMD", "assay": "SPR, CD3e homodimer on chip;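 further: surface plasmon resonance at 25 degrees C, antibodies flowed as analyte over CD3 epsilon homodimer amine-coupled to a CM4 chip, running buffer HBS-EP+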", "data": [{"binder": "GLS3000 L27bS one-arm antibody (H chain CE115HA000) (antibody, human IgG1, kappa, L234A L235A, N297A, name in Kabat numbering, one-arm antibody) heavy: QVQLVESGGGVVQPGRSLRLSCAASGFTFSNAWMHWVRQAPGKGLEWVAQIKAKSNNYATYYAESVKGRFTISRDDSKNSLYLQMNSLKTEDTAVYYCRYVHYGAYYGVDAWGQGTTVTVSSASTKGPSVFPLAPSSKSTSGGTAALGCLVKDYFPEPVTVSWNSGALTSGVHTFPAVLQSSGLYSLSSVVTVPSSSLGTQTYICNVNHKPSNTKVDKKVEPKSCDKTHTCPPCPAPEAAGGPSVFLFPPKPKDTLMISRTPEVTCVVVDVSHEDPEVKFNWYVDGVEVHNAKTKPREEQYASTYRVVSVLTVLHQDWLNGKEYKCKVSNKALPAPIEKTISKAKGQPREPQVYTLPPSRCELTKNQVSLSCAVKGFYPSDIAVEWESNGQPENNYKTTPPVLDSDGSFFLVSKLTVDKSRWQQGNVFSCSVMHEALHNHYTQKSLSLSPDYKDDDDK EPKSSDKTHTCPPCPAPELLGGPSVFLFPPKPKDTLMISRTPEVTCVVVDVSHEDPEVKFNWYVDGVEVHNAKTKPREEQYNSTYRVVSVLTVLHQDWLNGKEYKCKVSNKALPAPIEKTISKAKGQPREPQVCTLPPSRDELTKNQVSLWCLVKGFYPSDIAVEWESNGQPENNYKTTPPVLDSDGSFFLYSKLTVDKSRWQQGNVFSCSVMHEALHNRYTQKSLSLSP light: DIVMTQSPLSLPVTPGEPASISCRSSQSSVHSNRNTYLHWYQQKPGQAPRLLIYKVSNRFSGVPDRFSGSGSGTDFTLKISRVEAEDVGVYYCGQGTQVPYTFGQGTKLEIKRTVAAPSVFIFPPSDEQLKSGTASVVCLLNNFYPREAKVQWKVDNALQSGNSQESVTEQDSKDSTYSLSSTLTLSKADYEKHKVYACEVTHQGLSSPVTKSFNRGEC", "values": [{"measurement": "ratio of amounts bound (altered form / unaltered GLS3000 antibody)", "result": 0.71}]}, {"binder": "GLS3000 L27bV one-arm antibody (H chain CE115HA000) (antibody, human IgG1, kappa, L234A L235A, N297A, name in Kabat numbering, one-arm antibody) heavy: QVQLVESGGGVVQPGRSLRLSCAASGFTFSNAWMHWVRQAPGKGLEWVAQIKAKSNNYATYYAESVKGRFTISRDDSKNSLYLQMNSLKTEDTAVYYCRYVHYGAYYGVDAWGQGTTVTVSSASTKGPSVFPLAPSSKSTSGGTAALGCLVKDYFPEPVTVSWNSGALTSGVHTFPAVLQSSGLYSLSSVVTVPSSSLGTQTYICNVNHKPSNTKVDKKVEPKSCDKTHTCPPCPAPEAAGGPSVFLFPPKPKDTLMISRTPEVTCVVVDVSHEDPEVKFNWYVDGVEVHNAKTKPREEQYASTYRVVSVLTVLHQDWLNGKEYKCKVSNKALPAPIEKTISKAKGQPREPQVYTLPPSRCELTKNQVSLSCAVKGFYPSDIAVEWESNGQPENNYKTTPPVLDSDGSFFLVSKLTVDKSRWQQGNVFSCSVMHEALHNHYTQKSLSLSPDYKDDDDK EPKSSDKTHTCPPCPAPELLGGPSVFLFPPKPKDTLMISRTPEVTCVVVDVSHEDPEVKFNWYVDGVEVHNAKTKPREEQYNSTYRVVSVLTVLHQDWLNGKEYKCKVSNKALPAPIEKTISKAKGQPREPQVCTLPPSRDELTKNQVSLWCLVKGFYPSDIAVEWESNGQPENNYKTTPPVLDSDGSFFLYSKLTVDKSRWQQGNVFSCSVMHEALHNRYTQKSLSLSP light: DIVMTQSPLSLPVTPGEPASISCRSSQSVVHSNRNTYLHWYQQKPGQAPRLLIYKVSNRFSGVPDRFSGSGSGTDFTLKISRVEAEDVGVYYCGQGTQVPYTFGQGTKLEIKRTVAAPSVFIFPPSDEQLKSGTASVVCLLNNFYPREAKVQWKVDNALQSGNSQESVTEQDSKDSTYSLSSTLTLSKADYEKHKVYACEVTHQGLSSPVTKSFNRGEC", "values": [{"measurement": "ratio of amounts bound (altered form / unaltered GLS3000 antibody)", "result": 1.12}]}, {"binder": "GLS3000 L27bY one-arm antibody (H chain CE115HA000) (antibody, human IgG1, kappa, L234A L235A, N297A, name in Kabat numbering, one-arm antibody) heavy: QVQLVESGGGVVQPGRSLRLSCAASGFTFSNAWMHWVRQAPGKGLEWVAQIKAKSNNYATYYAESVKGRFTISRDDSKNSLYLQMNSLKTEDTAVYYCRYVHYGAYYGVDAWGQGTTVTVSSASTKGPSVFPLAPSSKSTSGGTAALGCLVKDYFPEPVTVSWNSGALTSGVHTFPAVLQSSGLYSLSSVVTVPSSSLGTQTYICNVNHKPSNTKVDKKVEPKSCDKTHTCPPCPAPEAAGGPSVFLFPPKPKDTLMISRTPEVTCVVVDVSHEDPEVKFNWYVDGVEVHNAKTKPREEQYASTYRVVSVLTVLHQDWLNGKEYKCKVSNKALPAPIEKTISKAKGQPREPQVYTLPPSRCELTKNQVSLSCAVKGFYPSDIAVEWESNGQPENNYKTTPPVLDSDGSFFLVSKLTVDKSRWQQGNVFSCSVMHEALHNHYTQKSLSLSPDYKDDDDK EPKSSDKTHTCPPCPAPELLGGPSVFLFPPKPKDTLMISRTPEVTCVVVDVSHEDPEVKFNWYVDGVEVHNAKTKPREEQYNSTYRVVSVLTVLHQDWLNGKEYKCKVSNKALPAPIEKTISKAKGQPREPQVCTLPPSRDELTKNQVSLWCLVKGFYPSDIAVEWESNGQPENNYKTTPPVLDSDGSFFLYSKLTVDKSRWQQGNVFSCSVMHEALHNRYTQKSLSLSP light: DIVMTQSPLSLPVTPGEPASISCRSSQSYVHSNRNTYLHWYQQKPGQAPRLLIYKVSNRFSGVPDRFSGSGSGTDFTLKISRVEAEDVGVYYCGQGTQVPYTFGQGTKLEIKRTVAAPSVFIFPPSDEQLKSGTASVVCLLNNFYPREAKVQWKVDNALQSGNSQESVTEQDSKDSTYSLSSTLTLSKADYEKHKVYACEVTHQGLSSPVTKSFNRGEC", "values": [{"measurement": "ratio of amounts bound (altered form / unaltered GLS3000 antibody)", "result": 0.25}]}, {"binder": "GLS3000 L27bW one-arm antibody (H chain CE115HA000) (antibody, human IgG1, kappa, L234A L235A, N297A, name in Kabat numbering, one-arm antibody) heavy: QVQLVESGGGVVQPGRSLRLSCAASGFTFSNAWMHWVRQAPGKGLEWVAQIKAKSNNYATYYAESVKGRFTISRDDSKNSLYLQMNSLKTEDTAVYYCRYVHYGAYYGVDAWGQGTTVTVSSASTKGPSVFPLAPSSKSTSGGTAALGCLVKDYFPEPVTVSWNSGALTSGVHTFPAVLQSSGLYSLSSVVTVPSSSLGTQTYICNVNHKPSNTKVDKKVEPKSCDKTHTCPPCPAPEAAGGPSVFLFPPKPKDTLMISRTPEVTCVVVDVSHEDPEVKFNWYVDGVEVHNAKTKPREEQYASTYRVVSVLTVLHQDWLNGKEYKCKVSNKALPAPIEKTISKAKGQPREPQVYTLPPSRCELTKNQVSLSCAVKGFYPSDIAVEWESNGQPENNYKTTPPVLDSDGSFFLVSKLTVDKSRWQQGNVFSCSVMHEALHNHYTQKSLSLSPDYKDDDDK EPKSSDKTHTCPPCPAPELLGGPSVFLFPPKPKDTLMISRTPEVTCVVVDVSHEDPEVKFNWYVDGVEVHNAKTKPREEQYNSTYRVVSVLTVLHQDWLNGKEYKCKVSNKALPAPIEKTISKAKGQPREPQVCTLPPSRDELTKNQVSLWCLVKGFYPSDIAVEWESNGQPENNYKTTPPVLDSDGSFFLYSKLTVDKSRWQQGNVFSCSVMHEALHNRYTQKSLSLSP light: DIVMTQSPLSLPVTPGEPASISCRSSQSWVHSNRNTYLHWYQQKPGQAPRLLIYKVSNRFSGVPDRFSGSGSGTDFTLKISRVEAEDVGVYYCGQGTQVPYTFGQGTKLEIKRTVAAPSVFIFPPSDEQLKSGTASVVCLLNNFYPREAKVQWKVDNALQSGNSQESVTEQDSKDSTYSLSSTLTLSKADYEKHKVYACEVTHQGLSSPVTKSFNRGEC", "values": [{"measurement": "ratio of amounts bound (altered form / unaltered GLS3000 antibody)", "result": 0.26}]}]}
